Experimental data: publication PMC9814900

Target: MDM2 25-109 (Homo sapiens), Q00987
Assay: BLI competition
Conditions: modification not given

AAFAAYWAALAAK [peptide 34] gave a Kd of 4.7 nM.
